# The nanobody polyreactivity screen of Harvey et al. (2022)
# Test: yeast display, Sf9 membrane polyspecificity reagent, FACS + sequencing; frameworks hold sequencing errors
# Procedure, shortened: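 Sorting gates, low and high (top ~1%), were placed on anti-HA fluorescence to track expression and on streptavidin fluorescence to track reagent binding. A clone's polyreactivity label is taken from the gate it came out of. The reagent was 10% biotinylated, detergent-solubilized Sf9 membrane, applied for 1 hour at 4 °C to galactose-induced yeast display cells.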
row,Sequence,polyreactivity (PSR sort gate)
1,QVQLVESGGGLVQAGGSLRLSCAASGRTINRSAMGWYRQAPGKARELVAAISTSGGTTYYADSVKGRFTISRDNAQNTAYLQMNSLKPEDPADYYCAKRGPVRTQYTYYYWGQGTQVTVSS,high polyreactivity
2,QVQLVESGGGLVQAGGSLRLSCAASGRTINRYAMGWYRQAPGKERELVAAISTSGGTTYYADSVKGRFTISRDNAKNTVYLQMNSLKPEDSAVYYCAAVARRGSYLGQRLDYWGQGTQVTVSS,high polyreactivity
3,QVQLVESGGGLVQAGGSLRLSCAASGRTIPFYAMGWYRQAHGKERELVDAIDSGGNTYADSVKGRFTISRDNAKNTVYLQMISLKPEDTAVYYCAVDGGEFSSYGYWGQGTQVTVSS,low polyreactivity
4,QVQLVESGGGLVQAGGSLRLSCAASGRTIPNYAMGWTRQAPGKERELVAAISSSGDRTYYADSVKGRFTISRDNAKNTVYLQMNSLKPEDTAVYYCAADRGARGDYWGQGTQVTVSS,high polyreactivity
5,QVQLVESGGGLVQAGGSLRLSCAASGRTIRGYAMGWYRQAPGKERELVAAITRSGGSTFADSVKGRFTISRDNAKNTVYLQMNSLKPEDTAVYYCAADRGYKYYYWGQGTQVTVSS,high polyreactivity
6,QVQLVESGGGLVQAGGSLRLSCAASGRTIRHNAMGWYRQAPGKERELVAAISRSGGSTYYADSVKGRFTISRDNAKNTVYLQMNSLKPEDTAVYYCAAGYHIIYTPEYYYWGQGTQVTVSS,high polyreactivity
7,QVQLVESGGGLVQAGGSLRLSCAASGRTIRWNAMGGSRPAPGKERELVAAITSRGGSTYYADSVKGRFTISRDNAKNTVYLQMNSLKPEDTAVYYCAAGGRYGDDYWGQGTQVTVSS,high polyreactivity
8,QVQLVESGGGLVQAGGSLRLSCAASGRTIVSNAMGWYRQAPGKERELVAAITRGSRTYYADSVKGRFTISRDNAKNTVYLQMNILKPEDTAVYYCAAYRDYGSYGSWGQGTQVTVSS,high polyreactivity
9,QVQLVESGGGLVQAGGSLRLSCAASGRTIWNYALGWYRQGPGKERELVAVIRFSDGSTYYADSVKGRFTISRDNAKNTVYLQMNSLKPEDTAVYYCAAKGPRLWGSGFDYWGQGTQVTVSS,low polyreactivity
10,QVQLVESGGGLVQAGGSLRLSCAASGRTIYRNAMGWYRQAPGKERELVAAITSGGSTNYADSVKGRFTLSRDNAKNTGYLQMNSLKPEDTAVYYCAATRGRYLWYYRYDYWGQGTQVTVSS,high polyreactivity
11,QVQLVESGGGLVQAGGSLRLSCAASGRTIYYYAMGWYRQAPGKERELVAAISRSGSSTFYADSVKGRFTISRDNAKNTVYLQMNSLKPEDTAVYYCAADDYSRRVYFFFGAYDYWGQGTQVTVSS,high polyreactivity
12,QVQLVESGGGLVQAGGSLRLSCAASGRTLAHYTMGWYRQAPGKERELVAAITFSGGRTYYADSVKGRFTISRDNAKNTVYLQMNSQKPEDTAVYYCAAPGRWYYRGDDYWGQGTQVTVSS,low polyreactivity
13,QVQLVESGGGLVQAGGSLRLSCAASGRTLARNAMGWDRQAPGKEWELVASINGRTTRTYYADSVKGRFTISRDNANNTVYLQRNSLKPEDTAVYYCAADPPGYVYGKRYYWGQGTQVTVSS,high polyreactivity
14,QVQLVESGGGLVQAGGSLRLSCAASGRTLARNAMGWYRQAPGKERELVASINGRTTRTYYADSVKGRFTISRDNAKNTVYFQMNSLKPEDPAVYYCAADPPGYVYGKRYYWGQGTQVTVSS,high polyreactivity
15,QVQLVESGGGLVQAGGSLRLSCAASGRTLARTALGWYRQAPGKERELVAAISRRAVRTYYADSVKGRFTISRDNAKNTVYLQMNILKPEDTAVYYCYAASSLPGYDYWGQGTQVTVSS,high polyreactivity
16,QVQLVESGGGLVQAGGSLRLSCAASGRTLFPNVMGWYRQAPGKERELVAAIRGTGGSTYADSVKGRVTISRDNAKNTVYLQMNSLKPEDTAVYYCAAGYPVTRRTIRFDYWGQGTQVTVSS,high polyreactivity
17,QVQLVESGGGLVQAGGSLRLSCAASGRTLFTIAMGWYRQAPGKERELLAAISIGGTTYYADSVKGRFTISRDYAKNTVYLQMNSLKPEDTAVYYCNKVRRFHSEYGYWGQGTQVTVSS,high polyreactivity
18,QVQLVESGGGLVQAGGSLRLSCAASGRTLFWNAMGWYRQAPGKEREFVAAIRWRGGSTYYADSVKGRFTISRDNAKNTVYLQMNSLKPEDTAVYYCGAAVRPYKRQDDYWGQGTQVSVSS,high polyreactivity
19,QVQLVESGGGLVQAGGSLRLSCAASGRTLGTNAMGWYRQAPGKERELVATISRGGITNYADSVKGRFTISRDNPKNTVYLQMNSLKPEDTAVYYCNVRYQHVYRGYGPNKYNYWGQGTQVTVSS,high polyreactivity
20,QVQLVESGGGLVQAGGSLRLSCAASGRTLGYNAMGWYRQAPGKARELVASINSGVSTNYADSVQGRFTISRDNAKNTVYLQMNSLKPEDTAVYYCAAEKYGRGAGREGWESDYWGQGTQVTVSS,low polyreactivity
21,QVQLVESGGGLVQAGGSLRLSCAASGRTLGYYAKGWYRQAPGKERELVAAISRSGGSTYYADSVKGRFTISRDNAKNTVYLQMNSLKPEDTAVYYCAATYGPSRYRYDYWGQGTQVTVSS,high polyreactivity
22,QVQLVESGGGLVQAGGSLRLSCAASGRTLIYYAMGWYRQAPGKERELVAAISSSGTSTYYADSVKGRFTISRDNAKNTVYLQMNSLKPEDTAVYYCAADGRTLGRRYYYWGQGTQVTVSS,high polyreactivity

row,Sequence,polyreactivity (PSR sort gate)
1,QVQLVESGGGLVQAGGSLRLSCAASGRTLLLNTMGWYRQAPGKERELVAAISWRDGSTYYADSVKGRFTFSRDKAKNTVYLLMNSLKPEDTAVYYCNARLSGRSQYDVRFDYWGQGTQVTVSS,low polyreactivity
2,QVQLVESGGGLVQAGGSLRLSCAASGRTLLPNAMGWSRQAPGKERELVASIRDGGDTNYADSVKGRFTISRDNAKNTVYLQMNSLKPEDTAVYYCNADWWAYYSFGHEYWGQGTQVTVSS,low polyreactivity
3,QVQLVESGGGLVQAGGSLRLSCAASGRTLLSPNAMGWYRQAPGKARELVAVISWSDGSTYYADSVKGRFTISRDNANNTVYLQMNSLKPEDTAVYYSAASDPFEASQYKYDYWGQGTQVTVSS,low polyreactivity
4,QVQLVESGGGLVQAGGSLRLSCAASGRTLNAYAMGWYRHAPGKERELVAAITWDDGSTYYAHSVKGRFTISRDNAKNTVSLQMNSLKPEDSAVYYCAAYAYNAIEYGYWGQGTQVNVSS,low polyreactivity
5,QVQLVESGGGLVQAGGSLRLSCAASGRTLPFNAMGWYRQAPGKERELVAAITRGGSTNYADSVKGRFTISRDNAKNTVYLQMNSLKPEDTAVYYCAARRYAWYGYRAYDYWGQGTQVTVSS,high polyreactivity
6,QVQLVESGGGLVQAGGSLRLSCAASGRTLQHYAMGWYRQAPGKERELVAGITKNGGSTYYADSVKGRFTISRDNAKNTVYLQMNSLKPEDTAVYYCAKRWGGYSIPLDYDYWGQGTQVTVSS,low polyreactivity
7,QVQLVESGGGLVQAGGSLRLSCAASGRTLQWYAMGWYRQAPGKERELVATISSGGSTKYADSVKGRFTISRDNAKNTVYLQMNSLKPEDTAVYYCNAQPYGIYYHRYYYWGQGTQVTVSS,low polyreactivity
8,QVQLVESGGGLVQAGGSLRLSCAASGRTLRRYAMGWYRQAPGKERELVAAITSGGTTNYADSVKGRFTISRDNAKNTVYLQMNSLKPEDTAVYYCNARKSSGLSSYDWYSWEYGYWGQGTQVTVSS,low polyreactivity
9,QVQLVESGGGLVQAGGSLRLSCAASGRTLRYYAMGWYRQAPGKDRELVASISIGGSTYYADSVKGRFTISRDNAKNTVYLQMTSLKPEDTAVYYGATDYSNSGYGYWGQGTQVTVSS,low polyreactivity
10,QVQLVESGGGLVQAGGSLRLSCAASGRTLRYYAMGWYRQAPGTERELVASISIGGSTYYADSVKGRFTISRDNAKNTVYLQMHSQKPEATAVYYCATDYSTSGYGYWGQGTQVTVST,low polyreactivity
11,QVQLVESGGGLVQAGGSLRLSCAASGRTLSAYAMGWYRQAPGKERELVAALRWRGGSTVYAASVKGRFTISRDNAKNPVYLQMHSLKPADTAVYYCNALPGNRRTVYYWGQGTQVTVSS,high polyreactivity
12,QVQLVESGGGLVQAGGSLRLSCAASGRTLSFYTMGWYRQAPGKERELVAAISSRTGSTYYADSVKGRFTISRDNAKNTVYLQMNRLKPEDTAVYYCAAASRAFAGSGHYYWGQGTQVTVSS,high polyreactivity
13,QVQLVESGGGLVQAGGSLRLSCAASGRTLSKNAMGWYRQAPGKERELVATISSVGRTNYADSVKGRFTISRDNAKNTVYLQMNSLKPVDTAVYYCAARRFRGSYYWGLGTQVTVSS,high polyreactivity
14,QVQLVESGGGLVQAGGSLRLSCAASGRTLSRYTMGWYRQAPGKERELVAAISTSGSTYYADSVKGRFTISRDNAKNTVYLQMNSLKPEDTAVYYCYAVRRYLQYATGYDYWGQGTQVTVSS,high polyreactivity
15,QVQLVESGGGLVQAGGSLRLSCAASGRTLSWYAMGWYRQAPGKERELVAAISYRGVSTYYADSVKGRFTISRDNAKNTVYLQMNSLNPEDTAVYYCAAESWYYSYIVEMEYWGQGTQVTVSS,high polyreactivity
16,QVQLVESGGGLVQAGGSLRLSCAASGRTLSWYAMGWYRQAPGKERELVASISSGGGTYYADSVKGRFTISRDNAKNTVYLQMNSLKPEDTAVYYCAARYHYAKSPYRYYYWGQGTQVTVSS,high polyreactivity
17,QVQLVESGGGLVQAGGSLRLSCAASGRTLTFYAMGWYRQAPVKERELVAAISRRAGSTYYADSVKGRFTISRDTAKNTVYLQMNSLKPEDTAVYYCAREPYSASHRYCLYRGYDYWGQGTQVTVSS,low polyreactivity
18,QVQLVESGGGLVQAGGSLRLSCAASGRTLTGYDMGWYRQAPGKERELVAAITWSGGSTFYADSVKGRFTMSRYNAKNTVYLQMNSLKPEDTAVYYCNVTDVTEPSLIYGYYWGQGTQVTVSS,low polyreactivity
19,QVQLVESGGGLVQAGGSLRLSCAASGRTLTIYAMGWYRPAPGKERELVAAINWSGGGTYYADSVKGRFTISRDNAKNTVYLQMNRLKPEDTAVYYCAAGRSFRGSYWYEYWGQGTQVTVSS,high polyreactivity
20,QVQLVESGGGLVQAGGSLRLSCAASGRTLTQNAMGWYRQAPGKERELVATISWTAGSTYYADSVKGRFTISRDNAKNTVYLQMNSLKPEDTAVYYCAAVVFYSIYDYWGQGTQVTVSS,low polyreactivity
21,QVQLVESGGGLVQAGGSLRLSCAASGRTLVLNMGWYRQAPGKERELVATINSGGSTYYADSVKGRFTISRDNAKNTVYLQMNSLKPEDTAVYYCAVLSSDGKFDYWGQGTQVTVSS,low polyreactivity
